For the test, the target named is TGF-β receptors on MFB-F11 cells. The conditions noted are these: scale: fold less potent than HEK293T-expressed TGM1.

These results are taken from PMC8516079.

Regarding “algal-expressed TGM1 (Heligmosomoides polygyrus TGF-β mimic, mature 5-domain, FLAG-tagged) (ligand)”, the MFB-F11 Smad-responsive reporter cells, secreted alkaline phosphatase (405 nm), log dilutions starting at 100 ng/mL, 24 h; potency against HEK293T-expressed TGM1 was 10.
